Test results as given in the supplement of paper PMC10126150.
± gives the standard deviation of the averaged measurements.

test system: ATP; experiment: switch fluorescence ratio, 500 uM ATP over buffer (Cy3 cluster intensity, sum of 5 cycles each) (fold (ratio)); higher = stronger signal-on switching upon ATP binding; sequences stand for … in TCGTCGGCAGCGTCAGATGTGTATAAGAGACAGTTTTTTTTTTTTTTTTTTTTTTTTT…TC; details: aptamer strand: ATP DNA aptamer (quencher-CACCTGGGGGAGTATTGCGGAGGAAGG + anchor), 100 nM annealed; ATP concentration: 500 uM
Outline: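 After annealing to 100 nM quencher-labelled ATP aptamer, Cy3-labelled switching-strand clusters on a modified Illumina MiSeq flow-cell were imaged in selection buffer. A second image followed after 15 min with 500 uM ATP at 22 °C, and five such buffer/ATP cycles were done, each separated by NaOH stripping and re-annealing. The fluorescence ratio, averaged per switch-domain sequence, is summed target-cycle over summed buffer-cycle Cy3 intensity per cluster, with clusters outside 100-1000 RFU excluded.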
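Also: ATP exposure 15 min at 22 °C before imaging.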

For TGGCCGGCTG, which switch fluorescence ratio is on record?
The switch fluorescence ratio was 1 ± 0.074.

TGGCCGGTGT was tested. Which switch fluorescence ratio did it give?
Its switch fluorescence ratio is 0.991 ± 0.032.

With TGGCCGGTTT as the sequence, how does the switch fluorescence ratio read?
Its switch fluorescence ratio is 1.01 ± 0.011.

With TGGCGAACGG as the sequence, how does the switch fluorescence ratio read?
The switch fluorescence ratio was 1.01 ± 0.052.

Which switch fluorescence ratio does the source give for TGGCGAAGTA here?
The switch fluorescence ratio was 1.01 ± 0.013.

For TGGCGATAAT, which switch fluorescence ratio is on record?
The switch fluorescence ratio was 1.05 ± 0.031.

How did the switch fluorescence ratio turn out when TGGCGCTGGG was run?
The switch fluorescence ratio was 0.978 ± 0.022.

With TGGCGGGGCG as the sequence, how does the switch fluorescence ratio read?
The switch fluorescence ratio was 1.02 ± 0.038.

Which switch fluorescence ratio does the source give for TGGCGGGGGA here?
Its switch fluorescence ratio is 1.05 ± 0.042.

How did the switch fluorescence ratio turn out when TGGCGGGTCG was run?
The switch fluorescence ratio was 1.06 ± 0.079.

How did the switch fluorescence ratio turn out when TGGCGGGTTA was run?
Its switch fluorescence ratio is 0.988 ± 0.067.

TGGCGGTGGT was tested. Which switch fluorescence ratio did it give?
Its switch fluorescence ratio is 0.978 ± 0.017.

Which switch fluorescence ratio does the source give for TGGCGGTTTT here?
The switch fluorescence ratio was 1.005 ± 0.0077.

For TGGCTAAACG, which switch fluorescence ratio is on record?
The switch fluorescence ratio was 0.992 ± 0.019.

With TGGCTGACAG as the sequence, how does the switch fluorescence ratio read?
The switch fluorescence ratio was 0.992 ± 0.023.

For TGGCTGTACA, which switch fluorescence ratio is on record?
Its switch fluorescence ratio is 1.01 ± 0.025.

Which switch fluorescence ratio does the source give for TGGCTGTTTT here?
The switch fluorescence ratio was 1.04 ± 0.042.

TGGCTTAGTT was tested. Which switch fluorescence ratio did it give?
The switch fluorescence ratio was 0.9956 ± 0.0026.

With TGGCTTGCCG as the sequence, how does the switch fluorescence ratio read?
Its switch fluorescence ratio is 0.998 ± 0.027.

For TGGCTTTTGT, which switch fluorescence ratio is on record?
Its switch fluorescence ratio is 1.44 ± 0.63.

TGGGAAAATG was tested. Which switch fluorescence ratio did it give?
Its switch fluorescence ratio is 1.018 ± 0.0069.

Which switch fluorescence ratio does the source give for TGGGAAAGGC here?
Its switch fluorescence ratio is 1.07 ± 0.061.

How did the switch fluorescence ratio turn out when TGGGAAATTT was run?
Its switch fluorescence ratio is 1.1 ± 0.12.

With TGGGAACGGG as the sequence, how does the switch fluorescence ratio read?
The switch fluorescence ratio was 0.983 ± 0.018.

TGGGAAGAGT was tested. Which switch fluorescence ratio did it give?
The switch fluorescence ratio was 0.996 ± 0.028.

With TGGGAAGGGG as the sequence, how does the switch fluorescence ratio read?
The switch fluorescence ratio was 0.998 ± 0.013.

Which switch fluorescence ratio does the source give for TGGGAAGTGG here?
The switch fluorescence ratio was 1.04 ± 0.071.

TGGGAATGGG was tested. Which switch fluorescence ratio did it give?
The switch fluorescence ratio was 0.986 ± 0.011.

How did the switch fluorescence ratio turn out when TGGGAATTTT was run?
Its switch fluorescence ratio is 1.01 ± 0.049.

How did the switch fluorescence ratio turn out when TGGGACGGGC was run?
The switch fluorescence ratio was 0.98 ± 0.049.

With TGGGAGAAAG as the sequence, how does the switch fluorescence ratio read?
The switch fluorescence ratio was 0.999 ± 0.024.

Which switch fluorescence ratio does the source give for TGGGAGAGGG here?
The switch fluorescence ratio was 1.01 ± 0.02.

With TGGGAGAGTA as the sequence, how does the switch fluorescence ratio read?
The switch fluorescence ratio was 0.996 ± 0.034.

How did the switch fluorescence ratio turn out when TGGGAGGAAA was run?
The switch fluorescence ratio was 1.01 ± 0.039.

How did the switch fluorescence ratio turn out when TGGGAGGAGG was run?
Its switch fluorescence ratio is 1.01 ± 0.077.

For TGGGAGGCCT, which switch fluorescence ratio is on record?
The switch fluorescence ratio was 1.02 ± 0.021.

For TGGGAGGGCT, which switch fluorescence ratio is on record?
The switch fluorescence ratio was 1.05 ± 0.093.

For TGGGAGGGGT, which switch fluorescence ratio is on record?
Its switch fluorescence ratio is 1.01 ± 0.014.

For TGGGAGGTGT, which switch fluorescence ratio is on record?
The switch fluorescence ratio was 1.04 ± 0.028.

How did the switch fluorescence ratio turn out when TGGGAGTAAA was run?
The switch fluorescence ratio was 1.02 ± 0.027.

How did the switch fluorescence ratio turn out when TGGGAGTACT was run?
The switch fluorescence ratio was 1.0104 ± 0.00041.

For TGGGAGTCTG, which switch fluorescence ratio is on record?
Its switch fluorescence ratio is 0.9898 ± 0.0047.

How did the switch fluorescence ratio turn out when TGGGAGTGGG was run?
Its switch fluorescence ratio is 0.983 ± 0.019.

With TGGGATACGG as the sequence, how does the switch fluorescence ratio read?
The switch fluorescence ratio was 1.61 ± 1.

For TGGGATACTG, which switch fluorescence ratio is on record?
The switch fluorescence ratio was 1 ± 0.013.

Which switch fluorescence ratio does the source give for TGGGATAGAG here?
The switch fluorescence ratio was 1 ± 0.021.

For TGGGATATTC, which switch fluorescence ratio is on record?
The switch fluorescence ratio was 0.9991 ± 0.0032.

How did the switch fluorescence ratio turn out when TGGGATTAGT was run?
Its switch fluorescence ratio is 0.9868 ± 0.00058.

TGGGCAAGGT was tested. Which switch fluorescence ratio did it give?
Its switch fluorescence ratio is 1.05 ± 0.038.

How did the switch fluorescence ratio turn out when TGGGCAGGGG was run?
Its switch fluorescence ratio is 1.3 ± 0.57.

With TGGGCCAGA as the sequence, how does the switch fluorescence ratio read?
The switch fluorescence ratio was 1.01 ± 0.024.

With TGGGCCGCGC as the sequence, how does the switch fluorescence ratio read?
Its switch fluorescence ratio is 1.04 ± 0.046.

TGGGCCTAAG was tested. Which switch fluorescence ratio did it give?
Its switch fluorescence ratio is 0.968 ± 0.061.

With TGGGCG as the sequence, how does the switch fluorescence ratio read?
Its switch fluorescence ratio is 0.994 ± 0.018.

With TGGGCGAATG as the sequence, how does the switch fluorescence ratio read?
Its switch fluorescence ratio is 0.9946 ± 0.0058.

How did the switch fluorescence ratio turn out when TGGGCGGGGC was run?
Its switch fluorescence ratio is 0.998 ± 0.018.

Which switch fluorescence ratio does the source give for TGGGCGGGGG here?
The switch fluorescence ratio was 1.03 ± 0.036.

TGGGCGGTCT was tested. Which switch fluorescence ratio did it give?
Its switch fluorescence ratio is 1.03 ± 0.039.

TGGGCTCCTT was tested. Which switch fluorescence ratio did it give?
Its switch fluorescence ratio is 1 ± 0.043.

For TGGGCTGCTT, which switch fluorescence ratio is on record?
The switch fluorescence ratio was 0.965 ± 0.017.

How did the switch fluorescence ratio turn out when TGGGGAAAAC was run?
The switch fluorescence ratio was 1.02 ± 0.051.

For TGGGGAAATA, which switch fluorescence ratio is on record?
The switch fluorescence ratio was 1.41 ± 0.57.

For TGGGGAACTT, which switch fluorescence ratio is on record?
The switch fluorescence ratio was 1.03 ± 0.041.

With TGGGGAATAA as the sequence, how does the switch fluorescence ratio read?
The switch fluorescence ratio was 1.01 ± 0.022.

For TGGGGACGGG, which switch fluorescence ratio is on record?
Its switch fluorescence ratio is 1 ± 0.046.

Which switch fluorescence ratio does the source give for TGGGGACTTT here?
The switch fluorescence ratio was 1.04 ± 0.045.

For TGGGGAGAAC, which switch fluorescence ratio is on record?
The switch fluorescence ratio was 1.055 ± 0.0077.

For TGGGGATACT, which switch fluorescence ratio is on record?
The switch fluorescence ratio was 1.04 ± 0.036.

TGGGGATAGC was tested. Which switch fluorescence ratio did it give?
The switch fluorescence ratio was 1.02 ± 0.053.

For TGGGGATCAC, which switch fluorescence ratio is on record?
The switch fluorescence ratio was 1.01 ± 0.071.

TGGGGATGGG was tested. Which switch fluorescence ratio did it give?
Its switch fluorescence ratio is 0.996 ± 0.029.

TGGGGATGGT was tested. Which switch fluorescence ratio did it give?
The switch fluorescence ratio was 0.991 ± 0.062.

How did the switch fluorescence ratio turn out when TGGGGATTGT was run?
The switch fluorescence ratio was 0.968 ± 0.023.

How did the switch fluorescence ratio turn out when TGGGGCAAGG was run?
The switch fluorescence ratio was 1.04 ± 0.031.

Which switch fluorescence ratio does the source give for TGGGGCACGG here?
Its switch fluorescence ratio is 1.09 ± 0.19.

How did the switch fluorescence ratio turn out when TGGGGCCTTT was run?
Its switch fluorescence ratio is 0.9981 ± 0.0045.

For TGGGGCTAAT, which switch fluorescence ratio is on record?
Its switch fluorescence ratio is 1.02 ± 0.034.

For TGGGGCTCTT, which switch fluorescence ratio is on record?
Its switch fluorescence ratio is 1 ± 0.013.

Which switch fluorescence ratio does the source give for TGGGGCTTTG here?
Its switch fluorescence ratio is 1.03 ± 0.026.

How did the switch fluorescence ratio turn out when TGGGGGACGC was run?
Its switch fluorescence ratio is 1.08 ± 0.045.

With TGGGGGACTC as the sequence, how does the switch fluorescence ratio read?
Its switch fluorescence ratio is 0.988 ± 0.023.

With TGGGGGAGG as the sequence, how does the switch fluorescence ratio read?
Its switch fluorescence ratio is 0.9974 ± 0.0058.

With TGGGGGAGGC as the sequence, how does the switch fluorescence ratio read?
Its switch fluorescence ratio is 0.973 ± 0.042.

For TGGGGGAGTG, which switch fluorescence ratio is on record?
The switch fluorescence ratio was 0.985 ± 0.024.

TGGGGGATAT was tested. Which switch fluorescence ratio did it give?
The switch fluorescence ratio was 1.05 ± 0.052.

How did the switch fluorescence ratio turn out when TGGGGGATTT was run?
Its switch fluorescence ratio is 1.27 ± 0.74.

Which switch fluorescence ratio does the source give for TGGGGGCACG here?
Its switch fluorescence ratio is 1 ± 0.026.

TGGGGGCCAT was tested. Which switch fluorescence ratio did it give?
Its switch fluorescence ratio is 0.999 ± 0.014.

TGGGGGCCGA was tested. Which switch fluorescence ratio did it give?
Its switch fluorescence ratio is 1.049 ± 0.0034.

For TGGGGGCTAT, which switch fluorescence ratio is on record?
The switch fluorescence ratio was 0.989 ± 0.053.

With TGGGGGCTTA as the sequence, how does the switch fluorescence ratio read?
Its switch fluorescence ratio is 0.99 ± 0.059.

Which switch fluorescence ratio does the source give for TGGGGGCTTC here?
The switch fluorescence ratio was 0.9896 ± 0.0091.

Which switch fluorescence ratio does the source give for TGGGGGGAAA here?
The switch fluorescence ratio was 1.01 ± 0.054.

With TGGGGGGAGC as the sequence, how does the switch fluorescence ratio read?
The switch fluorescence ratio was 1 ± 0.022.

For TGGGGGGATA, which switch fluorescence ratio is on record?
Its switch fluorescence ratio is 0.994 ± 0.045.

Which switch fluorescence ratio does the source give for TGGGGGGCAG here?
Its switch fluorescence ratio is 0.969 ± 0.017.

Which switch fluorescence ratio does the source give for TGGGGGGCAT here?
Its switch fluorescence ratio is 1.07 ± 0.19.

With TGGGGGGCTG as the sequence, how does the switch fluorescence ratio read?
Its switch fluorescence ratio is 0.983 ± 0.048.

With TGGGGGGGCG as the sequence, how does the switch fluorescence ratio read?
The switch fluorescence ratio was 0.998 ± 0.04.

For TGGGGGGGGC, which switch fluorescence ratio is on record?
Its switch fluorescence ratio is 1.01 ± 0.034.
